From EP4335867A1 (Cellemedy Co., Ltd, dated 2024)

Target: T1, human transferrin receptor-Fc tag standard (human, UniProt P02786 89-760, limits assumed)
T1 construct: Coated on a 96 well plate at 2 ug/ml; also called hTfR; not shown: Fc tag
Experiment: ELISA on plate-bound hTfR-Fc with anti-His detection; Kd calculated from an expected saturation point, since the curve was not saturated

T1 sequence (P02786 89-760 limits assumed): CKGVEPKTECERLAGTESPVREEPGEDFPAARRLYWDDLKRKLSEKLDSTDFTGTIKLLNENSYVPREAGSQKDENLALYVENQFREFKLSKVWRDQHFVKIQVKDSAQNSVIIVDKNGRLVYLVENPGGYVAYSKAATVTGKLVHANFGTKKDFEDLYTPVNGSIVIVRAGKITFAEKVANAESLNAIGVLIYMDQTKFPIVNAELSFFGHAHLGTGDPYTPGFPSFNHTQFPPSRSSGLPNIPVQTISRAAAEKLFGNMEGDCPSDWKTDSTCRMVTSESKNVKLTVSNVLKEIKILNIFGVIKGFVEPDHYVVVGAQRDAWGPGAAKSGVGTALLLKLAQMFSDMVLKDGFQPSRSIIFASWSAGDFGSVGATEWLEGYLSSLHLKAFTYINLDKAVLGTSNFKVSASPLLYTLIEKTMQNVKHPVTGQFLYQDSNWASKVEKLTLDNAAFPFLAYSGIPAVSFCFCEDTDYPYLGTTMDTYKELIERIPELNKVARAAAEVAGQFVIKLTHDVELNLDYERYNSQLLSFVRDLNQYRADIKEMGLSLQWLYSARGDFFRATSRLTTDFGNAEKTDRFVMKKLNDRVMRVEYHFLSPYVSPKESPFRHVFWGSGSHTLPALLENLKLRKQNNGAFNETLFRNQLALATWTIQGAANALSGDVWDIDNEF

Kd: ~4.4 µM
B1: huHF_Mutant2-dual (designed binder)
chain: MTTASTSQVRQNYHAASEAAINAQINLELYASYVYLSMSYYFDRDDVALKNFAKYFLHQSHEEREHAEKLMKLQNQRGGRIALADIQKPDCDDGGSYGSLYAFDIWESGLNAMECALHLEKNVNQSLLALHALATAKNDPHLCDFIETHYLNEQVKAIKELGDHVTNLRKMGAPESGLAEYLFDKHTLGDSDNESMPSFITLASLSTWEGYFDF
notes: Spherical nanoparticle of 24 self-assembled monomers, made in E. coli; not shown: A hexa-His tag is present (Ni-NTA purification, anti-His detection)
